# What was measured:
# [1] = target: T1, biotinylated goat anti-human kappa light chain; test: ELISA, positive control
# T1 construct: positive control of the ELISA
# Summary of the method: (§1)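 Monoclonal antibodies were first applied to human or mouse ACVR2A, alongside biotinylated goat anti-human kappa light chain (positive control) and human Fc (negative control); binding was then determined by ELISA.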
# human ACVR2A = target: T2, human ACVR2A (human, UniProt P27037 20-135, limits assumed); test: ELISA
# T2 construct: coated antigen of the initial ELISA; also called activin receptor, type II A
# Summary of the method: as §1
# mouse ACVR2A = target: T3, mouse ACVR2A (mouse, UniProt P27038 20-135, limits assumed); test: ELISA
# T3 construct: coated antigen of the initial ELISA
# Summary of the method: as §1
# Further: test concentration or dose not given here.
# T2 sequence (P27037 20-135 limits assumed): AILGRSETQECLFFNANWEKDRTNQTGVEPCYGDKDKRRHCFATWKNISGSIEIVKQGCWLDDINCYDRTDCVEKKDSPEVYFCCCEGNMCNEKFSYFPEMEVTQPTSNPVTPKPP
# T3 sequence (P27038 20-135 limits assumed): as the sequence (P27037 20-135 limits assumed) above, with K20R, V73I counted along it
Binder,optical density [1],optical density (human ACVR2A),optical density (mouse ACVR2A)
"374_G10 (antibody, V domains shown, Group III) VH: EVQLLESGGGLVQPGGSLRLSCAASGFTFSSYSMNWVRQAPGKGLEWVSSINYNSGYTSYADSVKGRFTISRDNSKNTLYLQMNSLRAEDTAVYYCARGANWHDTHLDYWGQGTLVTVSS VL: DIQMTQSPSSLSASVGDRVTITCRASQSIVSYLNWYQQKPGKAPKLVIYAVTSRASGVPSRFSGSGSGTDFTLTISSLQPEDFATYYCQQSYDSPLTFGGGTKVEIK",3.23 OD,3.68 OD,3.74 OD
"375_E05 (antibody, V domains shown, Group III) VH: EVQLLESGGGLVQPGGSLRLSCAASGFTFSSYSMNWVRQAPGKGLEWVAGINYNGGYTSYADSVKGRFTISRDNSKNTLYLQMNSLRAEDTAVYYCARGANWHDTALDYWGQGTLVTVSS VL: DIQMTQSPSSLSASVGDRVTITCRASQSILSYLNWYQQKPGKAPKLVIYAATSLASGVPSRFSGSGSGTDFTLTISSLQPEDFATYYCQQSYSSPLTFGGGTKVEIK",3.28 OD,3.67 OD,3.71 OD
"374_G09 (antibody, V domains shown, Group III) VH: EVQLLESGGGLVQPGGSLRLSCAASGFTFSSYSMNWVRQAPGKGLEWVAGINYNGGYKGYADSVKGRFTISRDNSKNTLYLQMNSLRAEDTAVYYCARGANWHDTHLDYWGQGTLVTVSS VL: DIQMTQSPSSLSASVGDRVTITCRASQSIVRYLNWYQQKPGKAPKLVIYAATSLASGVPSRFSGSGSGTDFTLTISSLQPEDFATYYCQQSYELPLTFGGGTKVEIK",3.26 OD,3.66 OD,3.6 OD
"375_A08 (antibody, V domains shown, Group III) VH: EVQLLESGGGLVQPGGSLRLSCAASGFTFSSYSMNWVRQAPGKGLEWVAGINYNGGYTGYADSVKGRFTISRDNSKNTLYLQMNSLRAEDTAVYYCARGANWHDTALDYWGQGTLVTVSS VL: DIQMTQSPSSLSASVGDRVTITCRASQSIVTYLNWYQQKPGKAPKLLIYAATSRASGVPSRFSGSGSGTDFTLTISSLQPEDFATYYCQQSYESPLTFGGGTKVEIK",3.14 OD,3.68 OD,3.69 OD
"374_G11 (antibody, V domains shown, Group III) VH: EVQLLESGGGLVQPGGSLRLSCAASGFTFSDYSMNWVRQAPGKGLEWVSGINYNGGYTSYADSVKGRFTISRDNSKNTLYLQMNSLRAEDTAVYYCARGANWHDTALDYWGQGTLVTVSS VL: DIQMTQSPSSLSASVGDRVTITCRASQSIISYVNWYQQKPGKAPKLVIYAATSLASGVPSRFSGSGSGTDFTLTISSLQPEDFATYYCQQSYDSPLTFGGGTKVEIK",3.25 OD,3.65 OD,3.6 OD
"375_A01 (antibody, V domains shown, Group III) VH: EVQLLESGGGLVQPGGSLRLSCAASGFTFDSYSMNWVRQAPGKGLEWVAGINYNGGYTSYADSVKGRFTISRDNSKNTLYLQMNSLRAEDTAVYYCARGANWHDTALDYWGQGTLVTVSS VL: DIQMTQSPSSLSASVGDRVTITCRASQSILSYLNWYQQKPGKAPKLVIYAATSRASGVPSRFSGSGSGTDFTLTISSLQPEDFATYYCQQSYNTPLTFGGGTKVEIK",2.91 OD,3.28 OD,3.68 OD
"375_A07 (antibody, V domains shown, Group III) VH: EVQLLESGGGLVQPGGSLRLSCAASGFTFDSYSMNWVRQAPGKGLEWVSSINYNSGYTGYADSVKGRFTISRDNSKNTLYLQMNSLRAEDTAVYYCARGANWHDTHLDYWGQGTLVTVSS VL: DIQMTQSPSSLSASVGDRVTITCRASQSILTYLNWYQQKPGKAPKLLIYAATSRASGVPSRFSGSGSGTDFTLTISSLQPEDFATYYCQQSYDTPLTFGGGTKVEIK",3.11 OD,3.58 OD,3.64 OD
"375_E02 (antibody, V domains shown, Group III) VH: EVQLLESGGGLVQPGGSLRLSCAASGFTFSDYSMNWVRQAPGKGLEWVAGINYNGGYTSYADSVKGRFTISRDNSKNTLYLQMNSLRAEDTAVYYCARGANWHDTALDYWGQGTLVTVSS VL: DIQMTQSPSSLSASVGDRVTITCRASQSILTYLNWYQQKPGKAPKLLIYAATSRASGVPSRFSGSGSGTDFTLTISSLQPEDFATYYCQQSYSSPLTFGGGTKVEIK",3.2 OD,3.58 OD,3.69 OD

# More lines, now with the values ahead:
optical density [1],optical density (human ACVR2A),optical density (mouse ACVR2A),Binder
3.21 OD,3.71 OD,3.7 OD,"374_G08 (antibody, V domains shown, Group III) VH: EVQLLESGGGLVQPGGSLRLSCAASGFTFDSYSMNWVRQAPGKGLEWVSGINYNGGYTSYADSVKGRFTISRDNSKNTLYLQMNSLRAEDTAVYYCARGANWHDTALDYWGQGTLVTVSS VL: DIQMTQSPSSLSASVGDRVTITCRASQSILTYVNWYQQKPGKAPKLVIYAATSRASGVPSRFSGSGSGTDFTLTISSLQPEDFATYYCQQSYDSPLTFGGGTKVEIK"
3.33 OD,3.85 OD,3.67 OD,"375_E06 (antibody, V domains shown, Group III) VH: EVQLLESGGGLVQPGGSLRLSCAASGFTFSSYSMNWVRQAPGKGLEWVSGINYNGGYKSYADSVKGRFTISRDNSKNTLYLQMNSLRAEDTAVYYCARGANWHDTALDYWGQGTLVTVSS VL: DIQMTQSPSSLSASVGDRVTITCRASQSILSYLNWYQQKPGKAPKLVIYAATSRASGVPSRFSGSGSGTDFTLTISSLQPEDFATYYCQQSYDSPLTFGGGTKVEIK"
3.14 OD,3.66 OD,3.35 OD,"375_A12 (antibody, V domains shown, Group III) VH: EVQLLESGGGLVQPGGSLRLSCAASGFTFSSYSMNWVRQAPGKGLEWVSGINYNSGYKSYADSVKGRFTISRDNSKNTLYLQMNSLRAEDTAVYYCARGANWHDTALDYWGQGTLVTVSS VL: DIQMTQSPSSLSASVGDRVTITCRASQSILSYLNWYQQKPGKAPKLVIYAVTSRASGVPSRFSGSGSGTDFTLTISSLQPEDFATYYCQQSYETPLTFGGGTKVEIK"
3.21 OD,3.68 OD,3.67 OD,"375_C04 (antibody, V domains shown, Group III) VH: EVQLLESGGGLVQPGGSLRLSCAASGFTFSDYSMNWVRQAPGKGLEWVAGINYNGGYTSYADSVKGRFTISRDNSKNTLYLQMNSLRAEDTAVYYCARGANWHDTALDYWGQGTLVTVSS VL: DIQMTQSPSSLSASVGDRVTITCRASQSILTYLNWYQQKPGKAPKLVIYAATSRASGVPSRFSGSGSGTDFTLTISSLQPEDFATYYCQQSYESPLTFGGGTKVEIK"
3.1 OD,3.3 OD,3.61 OD,"375_D01 (antibody, V domains shown, Group III) VH: EVQLLESGGGLVQPGGSLRLSCAASGFTFSSYSMNWVRQAPGKGLEWVSGINYNGGYTGYADSVKGRFTISRDNSKNTLYLQMNSLRAEDTAVYYCARGANWHDTALDYWGQGTLVTVSS VL: DIQMTQSPSSLSASVGDRVTITCRASQSILTYLNWYQQKPGKAPKLVIYAATSRASGVPSRFSGSGSGTDFTLTISSLQPEDFATYYCQQSYETPLTFGGGTKVEIK"
3.18 OD,3.57 OD,3.64 OD,"375_E03 (antibody, V domains shown, Group III) VH: EVQLLESGGGLVQPGGSLRLSCAASGFTFSDYSMNWVRQAPGKGLEWVANINYNGGYTGYADSVKGRFTISRDNSKNTLYLQMNSLRAEDTAVYYCARGANWHDTHLDYWGQGTLVTVSS VL: DIQMTQSPSSLSASVGDRVTITCRASQSILTYLNWYQQKPGKAPKLVIYAATSLASGVPSRFSGSGSGTDFTLTISSLQPEDFATYYCQQSYDNPLTFGGGTKVEIK"
3.15 OD,3.27 OD,3.29 OD,"374_H11 (antibody, V domains shown, Group III) VH: EVQLLESGGGLVQPGGSLRLSCAASGFTFSSYSMNWVRQAPGKGLEWVSGINYNGGYTSYADSVKGRFTISRDNSKNTLYLQMNSLRAEDTAVYYCARGANWHDTALDYWGQGTLVTVSS VL: DIQMTQSPSSLSASVGDRVTITCRASQSIISYVNWYQQKPGKAPKLVIYAATSLHSGVPSRFSGSGSGTDFTLTISSLQPEDFATYYCQQSYSNPLTFGGGTKVEIK"
3.2 OD,3.6 OD,3.65 OD,"375_F02 (antibody, V domains shown, Group III) VH: EVQLLESGGGLVQPGGSLRLSCAASGFTFSSYSMNWVRQAPGKGLEWVASINYNSGYTSYADSVKGRFTISRDNSKNTLYLQMNSLRAEDTAVYYCARGANWHDTHLDYWGQGTLVTVSS VL: DIQMTQSPSSLSASVGDRVTITCRASQSILSYLNWYQQKPGKAPKLLIYAATSRASGVPSRFSGSGSGTDFTLTISSLQPEDFATYYCQQSYDSPLTFGGGTKVEIK"
3.07 OD,3.08 OD,3.26 OD,"374_H01 (antibody, V domains shown, Group III) VH: EVQLLESGGGLVQPGGSLRLSCAASGFTFDSYSMNWVRQAPGKGLEWVAGINYNGGYTSYADSVKGRFTISRDNSKNTLYLQMNSLRAEDTAVYYCARGANWHDTHLDYWGQGTLVTVSS VL: DIQMTQSPSSLSASVGDRVTITCRASQSILSYLNWYQQKPGKAPKLVIYAATSLASGVPSRFSGSGSGTDFTLTISSLQPEDFATYYCQQSYENPLTFGGGTKVEIK"
3.28 OD,3.65 OD,3.34 OD,"375_B12 (antibody, V domains shown, Group III) VH: EVQLLESGGGLVQPGGSLRLSCAASGFTFDSYSMNWVRQAPGKGLEWVAGINYNGGYKSYADSVKGRFTISRDNSKNTLYLQMNSLRAEDTAVYYCARGANWHDTALDYWGQGTLVTVSS VL: DIQMTQSPSSLSASVGDRVTITCRASQSIVTYLNWYQQKPGKAPKLLIYAATSRASGVPSRFSGSGSGTDFTLTISSLQPEDFATYYCQQSYDTPLTFGGGTKVEIK"
3.21 OD,3.26 OD,3.45 OD,"375_D10 (antibody, V domains shown, Group III) VH: EVQLLESGGGLVQPGGSLRLSCAASGFTFSSYSMNWVRQAPGKGLEWVAGINYNGGYTSYADSVKGRFTISRDNSKNTLYLQMNSLRAEDTAVYYCARGANWHDTALDYWGQGTLVTVSS VL: DIQMTQSPSSLSASVGDRVTITCRASQSILTYVNWYQQKPGKAPKLLIYAATSRASGVPSRFSGSGSGTDFTLTISSLQPEDFATYYCQQSDDSPLTFGGGTKVEIK"

# — patent US20210380703A1 (RIGEL PHARMACEUTICALS, published 2021)
